Test results taken from patent US20090068109A1 (Janssen / Centocor, published 2009).
Substitutions are numbered along the chain they refer to. Values belong to the binder of their own block, whether it stands above or below them.

Columns and labels:
[1] = biological target: human MCP-1 (human) (UniProt P13500); experiment: BioVeris (IGEN) solution equilibrium titration
[2] = biological target: human MCP-1 (human) (UniProt P13500); experiment: inhibition of 125I-MCP-1 binding to THP-1 cells (CCR2)
[3] = biological target: human MCP-1 (human) (UniProt P13500); experiment: cell-based or functional assay
[4] = biological target: T1, human MCP-3 (human, UniProt P80098 24-99); experiment: Biacore, captured IgG
T1 construct: also called CCL7
Method: (§1) Specificity of Optimized Antibodies in Biacore Antibody Capture Mode (CNTO). Specificity evaluation was performed with selected IgGs. In Biacore 100 nM human MCP-1, human MCP-2, 3, 4 and human Eotaxin 1, 2 and 3 were added to captured optimized antibodies.

[5] = biological target: T2, human MCP-2 (human, UniProt P80075 24-99); experiment: Biacore, captured IgG
T2 construct: also called CCL8
T2 sequence (looked up): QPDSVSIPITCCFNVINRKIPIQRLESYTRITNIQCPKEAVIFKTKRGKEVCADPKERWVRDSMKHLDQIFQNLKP
Method: as §1

[6] = biological target: T3, human Eotaxin-3 (human, UniProt Q9Y258 24-94); experiment: Biacore, captured IgG
T3 sequence (looked up): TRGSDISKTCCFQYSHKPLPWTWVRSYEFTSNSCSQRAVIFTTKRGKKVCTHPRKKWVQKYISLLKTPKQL
Method: as §1

[7] = biological target: T4, human Eotaxin-2 (human, UniProt O00175 27-104, limits assumed); experiment: Biacore, captured IgG
T4 sequence (looked up): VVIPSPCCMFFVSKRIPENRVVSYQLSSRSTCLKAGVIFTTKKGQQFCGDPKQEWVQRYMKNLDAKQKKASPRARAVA
Method: as §1

[8] = biological target: T5, human MCP-4 (human, UniProt Q99616 24-98); experiment: Biacore, captured IgG
T5 construct: also called CCL13
Method: as §1

[9] = biological target: T6, human Eotaxin (human, UniProt P51671 24-97); experiment: BioVeris solution equilibrium titration
T6 construct: also called Eotaxin-1; Eotaxin 1
Method: Solution Equilibrium Titration (SET) Method for KD Determination and Cross-Reactivity Studies Using BioVeris. Affinity determination in solution was basically performed as described in the literature (Friguet et al., 1985). In order to improve the sensitivity and accuracy of the SET method, it was transferred from classical ELISA to ECL based BioVeris technology (Haenel et al., 2005, accepted for publication in Analytical Biochemistry). 1 mg/ml goat-anti-human (Fab)₂ or goat-anti-mouse IgG, Fc fragment specific antibodies (Jackson Immuno Research) were labelled with BV-tag™ NHS-Ester (Bioveris Europe, Witney, Oxfordshire, UK) according to manufacturer's instructions. The experiments were carried out in polypropylene microtiter plates and PBS pH 7.4 with 0.5% BSA and 0.02% Tween 20 as assay buffer. Unlabeled antigen was diluted in 4ⁿ series: For human and cyno MCP-1 a concentration range of 10 pM to 40 nM and for cross-reactivity controls (Eotaxin and MCP-2) a concentration range of 40 pM to 160 nM was chosen. Wells without antigen were used to determine Smax values. After addition of 100 pM Fab or IgG (final concentration in 75 μL final volume), the mixture was incubated for 2 hours at RT. Subsequently a mixture of 25 μl Dynabeads (0.4 mg/ml M-280 Streptavidin, DYNAL, Hamburg), coated with 0.25 μg/ml biotinylated MCP-1 (K69) and BV-tag labeled detection antibody in a final dilution of 1:4000 for anti-human Fab or 1:2000 for anti-mouse IgG were added per well. After incubation for 30 min on an Eppendorf shaker (700 rpm) at RT, electrochemiluminescence signals were detected using a M-384 SERIES® Workstation (Bioveris Europe) Data were evaluated with Origin 5.0 (Microcal) software applying customized fitting models (for Fab: Haenel et al., 2005, accepted for publication in Analytical Biochemistry; for IgG: according to Piehler et al., 1997).
Specificity Testing Using BioVeris. Beside the affinity also the specificity, especially the cross-reactivity to Eotaxin and MCP-2, was analyzed in solution equilibrium titration (SET) using BioVeris. No cross-reactivity to human MCP-2 was detectable for any of the selected 16 Fabs and 15 IgGs tested (one of the 16 selected IgGs was not available). As human MCP-1, human MCP-2 binds mainly to the CCR2 receptor, while human Eotaxin predominantly binds to the CCR3 receptor.

[10] = biological target: T7, human MCP-1 (human, UniProt P13500 24-99); experiment: cell-based or functional assay
[11] = biological target: T2, human MCP-2; experiment: Biacore, captured Fab
Method: For the specificity analysis of Fabs, surface plasmone resonance was used (Biacore 3000, Uppsala, Sweden) using the capture assay was used. Fabs were captured and the various proteins (MCP-2, -3, -4 and Eotaxin-1, -2 and -3) were used as analytes. CM5 chips (Biacore, Sweden) were coated with 6500-8000 RU anti-F(ab)₂ (Dianova, Affipure F(ab)₂ fragment goat anti-human IgG, F(ab)₂ fragment specific; 10 mM acetate buffer, pH 4.5) on all 4 flow cells, using standard EDC-NHS amine coupling chemistry. The flow cells 2-4 were captured with specific anti-MCP-1 Fabs (20 μl of 500 nM Fab at a flow rate of […], resulted capture density 300-400RU). After capturing of Fabs, the chemokines were injected (20 μl, flow rate 20 μl/min, PBS pH 7.4) at a concentration of 100 nM. Chemokines were stored in small aliquots and only freshly thawed material with maximum 1 freeze thaw cycle was used for the measurements. To avoid a combination of off rates aroused by the off rate of MCP-1, Fab specific interaction and the anti-Fab/Fab interaction, buffer was injected, to determine the dissociation of anti-Fab/Fab interaction. The achieved buffer sensorgram was subtracted from the specific one. The response units were normalized to the amount of capture antibody onto the surface.

[12] = biological target: T7, human MCP-1; experiment: inhibition of 125I-MCP-1 binding to THP-1 cells (CCR2)
[13] = biological target: T7, human MCP-1; experiment: Biacore, Fab
[14] = biological target: T8, cynomolgus monkey MCP-1 (cynomolgus monkey, UniProt P61274 24-99); experiment: Biacore, Fab
T8 construct: also called cyno MCP-1; cyno CCL-2
T8 sequence (P61274 24-99 limits assumed): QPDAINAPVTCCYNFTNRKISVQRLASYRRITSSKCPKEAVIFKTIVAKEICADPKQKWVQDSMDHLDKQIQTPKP

T7 sequence (P13500 24-99): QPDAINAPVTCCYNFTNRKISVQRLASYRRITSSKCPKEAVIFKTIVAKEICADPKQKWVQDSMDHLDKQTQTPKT
Sequence of human MCP-1 (human) (P13500 24-99): as above
T6 sequence (P51671 24-97 limits assumed): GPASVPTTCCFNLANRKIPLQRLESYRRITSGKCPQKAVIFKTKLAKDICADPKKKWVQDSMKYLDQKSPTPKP
T1 sequence (P80098 24-99 limits assumed): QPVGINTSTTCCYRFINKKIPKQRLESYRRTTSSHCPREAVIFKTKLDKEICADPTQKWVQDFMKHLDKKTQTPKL
T5 sequence (Q99616 24-98 limits assumed): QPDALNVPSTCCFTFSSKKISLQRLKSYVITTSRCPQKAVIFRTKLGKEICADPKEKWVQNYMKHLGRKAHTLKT

- Kd [1]: 65 nM
- IC50 [2]: 35.6 nM
- Inhibition of Ca2+ Mobilization IC50 [3]: 71.5 nM
B1: C775 Fab (Fab, from another filing, V domains shown)
VH: QVQLKQSGAELVRPGASVKLSCKASGYTFTDYYINWVKQRPGQGLEWIARIYPGTGNTYYNENFKGKATLTAEKSSSTAYMQLSSLTSEDSAVYFCARSGSTVVGNYYGMDYWGQGTSVTVSS
VL: SIVMTQTPKFLLVSAGDRVSITCKASQSVSNDVAWYQQKPGQSPKLLIYYASNRYTGVPDRFTGSGYGTDFTFTISTVQAEDLAVYFCQQDYSSPWTFGGGTKLEIKR

- IC50 [2]: 25.6 nM
- Inhibition of Ca2+ Mobilization IC50 [3]: 62.3 nM
B2: C775 IgG (antibody, from another filing, V domains shown)
VH: B1 VH
VL: B1 VL

- Ca2+ mobilization IC50 [10]: 124 nM
- binding result [11]: no binding (tested: 100 nM)
- IC50 [12]: 11 nM
- Kd [13]: 42 nM
- Kd [14]: 54 nM
B5: MOR03548 Fab (Fab, V domains shown)
VH: QVQLVESGGGLVQPGGSLRLSCAASGFTFRSYGMSWVRQAPGKGLEWVSNIRSDGSYTYYADSVKGRFTISRDNSKNTLYLQMNSLRAEDTAVYYCARFEFTPWTYFDFWGQGTLVTVSS
VL: DIELTQPPSVSVAPGQTARISCSGDNLGKKYVYWYQQKPGQAPVLVIYDDDNRPSGIPERFSGSNSGNTATLTISGTQAEDEADYYCQSYTAQSSASFGGGTKLTVL
notes: Parental HuCAL GOLD Fab with C-terminal FLAG and 6xHis tags

Second part, the binder before the results:

B3: MOR03747 IgG1 (antibody, V domains shown)
VH: B5 VH
VL: B5 VL with T91D, A92R, Q93F, A96T, S97G
notes: Human IgG1 lambda
- binding result [4]: no binding (tested: 100 nM)
- binding result [5]: no binding (tested: 100 nM)
- binding result [6]: no binding (tested: 100 nM)
- binding result [7]: no binding (tested: 100 nM)
- binding result [8]: no binding (tested: 100 nM)
- binding result [9]: no binding (tested: 40 pM to 160 nM)

B4: MOR03747 Fab (Fab, V domains shown)
VH: B5 VH
VL: B5 VL with T91D, A92R, Q93F, A96T, S97G
notes: HuCAL Fab with C-terminal FLAG and 6xHis tags
- binding result [9]: no binding (tested: 40 pM to 160 nM)

B6: MOR03744 Fab (Fab, V domains shown)
VH: B5 VH
VL: B5 VL with S89T, T91D, A92R, Q93F, A96T, S97A
notes: as for B4
- binding result [9]: no binding (tested: 40 pM to 160 nM)

B7: MOR03744 IgG1 (antibody, V domains shown)
VH: B5 VH
VL: B5 VL with S89T, T91D, A92R, Q93F, A96T, S97A
notes: Human IgG1 lambda
- binding result [4]: no binding (tested: 100 nM)
- binding result [5]: no binding (tested: 100 nM)
- binding result [6]: no binding (tested: 100 nM)
- binding result [7]: no binding (tested: 100 nM)
- binding result [8]: no binding (tested: 100 nM)
- binding result [9]: no binding (tested: 40 pM to 160 nM)
